According to the supplement of paper PMC11246515:
± gives the standard deviation of the averaged measurements.

Assay: total protein half-life in vivo (active degradation + dilution); higher = more stable protein
[1] = E. coli NCM3722 delta-clpP delta-lon delta-hslV, growth: N-lim chemostat, doubling time 6 h
[2] = E. coli NCM3722 delta-clpP, growth: N-lim chemostat, doubling time 6 h
[3] = E. coli NCM3722 delta-hslV, growth: N-lim chemostat, doubling time 6 h
[4] = E. coli NCM3722 delta-lon, growth: N-lim chemostat, doubling time 6 h
[5] = E. coli NCM3722 delta-smpB, growth: N-lim chemostat, doubling time 6 h
[6] = wild type E. coli NCM3722, growth: C-lim chemostat, doubling time 3 h
[7] = wild type E. coli NCM3722, growth: C-lim chemostat, doubling time 6 h
[8] = wild type E. coli NCM3722, growth: N-lim chemostat, doubling time 6 h
[9] = wild type E. coli NCM3722, growth: N-lim chemostat, doubling time 12 h
[10] = wild type E. coli NCM3722, growth: P-lim chemostat, doubling time 6 h
[11] = wild type E. coli NCM3722, growth: C-lim chemostat, doubling time 12 h
[12] = wild type E. coli NCM3722, growth: P-lim chemostat, doubling time 12 h

Sequence | total protein half-life in vivo [1] [h] | total protein half-life in vivo [2] [h] | total protein half-life in vivo [3] [h] | total protein half-life in vivo [4] [h] | total protein half-life in vivo [5] [h] | total protein half-life in vivo [6] [h] | total protein half-life in vivo [7] [h] | total protein half-life in vivo [8] [h] | total protein half-life in vivo [9] [h] | total protein half-life in vivo [10] [h] | total protein half-life in vivo [11] [h] | total protein half-life in vivo [12] [h]
MNIVVLISGNGSNLQAIIDACKTNKIKGTVRAVFSNKADAFGLERARQAGIATHTLIASAFDSREAYDRELIHEIDMYAPDVVVLAGFMRILSPAFVSHYAGRLLNIHPSLLPKYPGLHTHRQALENGDEEHGTSVHFVTDELDGGPVILQAKVPVFAGDSEDDITARVQTQEHAIYPLVISWFADGRLKMHENAAWLDGQRLPPQGYAADE | 4.883 ± 0.024 | 4.97 ± 0.32 | 5.15 ± 1.4 | 4.68 ± 0.53 | 4.39 ± 0.18 | 2.94 ± 0.6 | 5.63 ± 2.2 | 4.49 ± 0.41 | 9.87 ± 3.2 | 5.58 ± 0.33 | – | –
MRIHILGICGTFMGGLAMLARQLGHEVTGSDANVYPPMSTLLEKQGIELIQGYDASQLEPQPDLVIIGNAMTRGNPCVEAVLEKNIPYMSGPQWLHDFVLRDRWVLAVAGTHGKTTTAGMATWILEQCGYKPGFVIGGVPGNFEVSAHLGESDFFVIEADEYDCAFFDKRSKFVHYCPRTLILNNLEFDHADIFDDLKAIQKQFHHLVRIVPGQGRIIWPENDINLKQTMAMGCWSEQELVGEQGHWQAKKLTTDASEWEVLLDGEKVGEVKWSLVGEHNMHNGLMAIAAARHVGVAPADAANALGSFINARRRLELRGEANGVTVYDDFAHHPTAILATLAALRGKVGGTARIIAVLEPRSNTMKMGICKDDLAPSLGRADEVFLLQPAHIPWQVAEVAEACVQPAHWSGDVDTLADMVVKTAQPGDHILVMSNGGFGGIHQKLLDGLAKKAEAAQ | 5.233 ± 0.034 | – | 5.14 ± 0.089 | 6.73 ± 0.28 | 5.26 ± 0.38 | 2.84 ± 0.21 | – | 5.58 ± 0.38 | 9.82 ± 1.3 | 5.99 ± 0.1 | 12.236 ± 0.0033 | 12.4 ± 0.71
MELYLDTANVAEVERLARIFPIAGVTTNPSIIAASKESIWEVLPRLQKAIGDEGILFAQTMSRDAQGMVEEAKRLRDAIPGIVVKIPVTSEGLAAIKILKKEGITTLGTAVYSAAQGLLAALAGAKYVAPYVNRVDAQGGDGIRTVQELQTLLEMHAPESMVLAASFKTPRQALDCLLAGCESITLPLDVAQQMLNTPAVESAIEKFEHDWNAAFGTTHL | 4.61 ± 1.5 | – | – | 3.3 | 2.84 | 2.91 ± 0.4 | 3.9 ± 0.8 | – | – | 5.37 | 9.6 ± 0.48 | 9.74 ± 0.17
MCEHHHAAKHILCSQCDMLVALPRLEHGQKAACPRCGTTLTVAWDAPRQRPTAYALAALFMLLLSNLFPFVNMNVAGVTSEITLLEIPGVLFSEDYASLGTFFLLFVQLVPAFCLITILLLVNRAELPVRLKEQLARVLFQLKTWGMAEIFLAGVLVSFVKLMAYGSIGVGSSFLPWCLFCVLQLRAFQCVDRRWLWDDIAPMPELRQPLKPGVTGIRQGLRSCSCCTAILPADEPVCPRCSTKGYVRRRNSLQWTLALLVTSIMLYLPANILPIMVTDLLGSKMPSTILAGVILLWSEGSYPVAAVIFLASIMVPTLKMIAIAWLCWDAKGHGKRDSERMHLIYEVVEFVGRWSMIDVFVIAVLSALVRMGGLMSIYPAMGALMFALVVIMTMFSAMTFDPRLSWDRQPESEHEES [P0AFL9] | – | – | – | – | – | – | – | – | 11 | – | – | –
MPYLLEMKNITKTFGSVKAIDNVCLRLNAGEIVSLCGENGSGKSTLMKVLCGIYPHGSYEGEIIFAGEEIQASHIRDTERKGIAIIHQELALVKELTVLENIFLGNEITHNGIMDYDLMTLRCQKLLAQVSLSISPDTRVGDLGLGQQQLVEIAKALNKQVRLLILDEPTASLTEQETSILLDIIRDLQQHGIACIYISHKLNEVKAISDTICVIRDGQHIGTRDAAGMSEDDIITMMVGRELTALYPNEPHTTGDEILRIEHLTAWHPVNRHIKRVNDVSFSLKRGEILGIAGLVGAGRTETIQCLFGVWPGQWEGKIYIDGKQVDIRNCQQAIAQGIAMVPEDRKRDGIVPVMAVGKNITLAALNKFTGGISQLDDAAEQKCILESIQQLKVKTSSPDLAIGRLSGGNQQKAILARCLLLNPRILILDEPTRGIDIGAKYEIYKLINQLVQQGIAVIVISSELPEVLGLSDRVLVMHEGKLKANLINHNLTQEQVMEAALRSEHHVEKQSV | – | – | – | – | – | 2.9 ± 0.53 | – | – | – | – | 7.37 ± 2.8 | 9.14
MYTLNWQPPYDWSWMLGFLAARAVSSVETVADSYYARSLAVGEYRGVVTAIPDIARHTLHINLSAGLEPVAAECLAKMSRLFDLQCNPQIVNGALGRLGAARPGLRLPGCVDAFEQGVRAILGQLVSVAMAAKLTARVAQLYGERLDDFPEYICFPTPQRLAAADPQALKALGMPLKRAEALIHLANAALEGTLPMTIPGDVEQAMKTLQTFPGIGRWTANYFALRGWQAKDVFLPDDYLIKQRFPGMTPAQIRRYAERWKPWRSYALLHIWYTEGWQPDEA | 6.48 | – | – | – | – | 2.32 ± 0.17 | 2.85 | 1.34 | 1.62 | 3.45 | 4.47 | –
MFDSTLNPLWQRYILAVQEEVKPALGCTEPISLALAAAVAAAELEGPVERVEAWVSPNLMKNGLGVTVPGTGMVGLPIAAALGALGGNANAGLEVLKDATAQAIADAKALLAAGKVSVKIQEPCDEILFSRAKVWNGEKWACVTIVGGHTNIVHIETHDGVVFTQQACVAEGEQESPLTVLSRTTLAEILKFVNEVPFAAIRFILDSAKLNCALSQEGLSGKWGLHIGATLEKQCERGLLAKDLSSSIVIRTSAASDARMGGATLPAMSNSGSGNQGITATMPVVVVAEHFGADDERLARALMLSHLSAIYIHNQLPRLSALCAATTAAMGAAAGMAWLVDGRYETISMAISSMIGDVSGMICDGASNSCAMKVSTSASAAWKAVLMALDDTAVTGNEGIVAHDVEQSIANLCALASHSMQQTDRQIIEIMASKAR | 4.74 ± 0.075 | – | – | – | – | – | – | – | – | – | – | –
MSTPSARTGGSLDAWFKISQRGSTVRQEVVAGLTTFLAMVYSVIVVPGMLGKAGFPPAAVFVATCLVAGLGSIVMGLWANLPLAIGCAISLTAFTAFSLVLGQHISVPVALGAVFLMGVLFTVISATGIRSWILRNLPHGVAHGTGIGIGLFLLLIAANGVGLVIKNPLDGLPVALGDFATFPVIMSLVGLAVIIGLEKLKVPGGILLTIIGISIVGLIFDPNVHFSGVFAMPSLSDENGNSLIGSLDIMGALNPVVLPSVLALVMTAVFDATGTIRAVAGQANLLDKDGQIIDGGKALTTDSMSSVFSGLVGAAPAAVYIESAAGTAAGGKTGLTAITVGVLFLLILFLSPLSYLVPGYATAPALMYVGLLMLSNVAKIDFADFVDAMAGLVTAVFIVLTCNIVTGIMIGFATLVIGRLVSGEWRKLNIGTVVIAVALVTFYAGGWAI [P0AF52] | 6.73 ± 0.3 | 6.71 ± 0.4 | – | – | – | 3.4 ± 0.27 | 6.122 ± 0.032 | 6.45 ± 0.33 | 12.2 ± 0.93 | 6.39 ± 0.3 | 13.3 ± 3.4 | 14.2 ± 1.6
